Positions count from the first letter of the chain named. Where “and” joins values, the source holds several entries; their conditions need not be identical. Equal entries are not always repeated. Where two headings read alike, the source gives them in different places.

For test [1], the target named is T1, IGF1R-Fc (extracellular domain of human IGF1R aa 1-932 fused to hinge and constant regions of human IgG1) (human, UniProt P08069 31-932).
T1 construct: range 1-932; made in house by transient transfection, purified on Protein A; also called IGF-IR-Fc; not shown: hinge and constant regions of human IgG1

In test [2] the target is T2, Recombinant human EGFR-Fc (aa 1-645 of the extracellular domain of human EGFR fused to human Fc) (human, UniProt P00533 25-645).
T2 construct: range 1-645; bought from R&D Systems; also called EGFR645-Fc; EGFR-Fc (HER-1); not shown: human Fc

Test [3] has as its target T3, EGFR on the surface of human tumour cells (A431, H292) (human, UniProt P00533 25-1210). Briefly: cell-based or functional assay.
The target of test [4] is T4, IGF-IR on human tumour cells (H292, MCF-7, RH41) (human, UniProt P08069 31-1367). Briefly: cell-based or functional assay.
For test [5], the target named is T3, EGFR on the surface of human tumour ….
Test [6] has as its target T1, IGF1R-Fc (extracellular domain of human …). The source holds these as a separate data set.
For test [7], the target named is T3, EGFR on the surface of human tumour …. As to the kind of experiment: cell-based or functional assay. This is another data set of the same source.
Test [8] has as its target T4, IGF-IR on human tumour cells (H292, …). As to the kind of experiment: cell-based or functional assay. This is another data set of the same source.
Test [9] addresses T3, EGFR on the surface of human tumour …. The source holds these as a separate data set.
Test [10] addresses T2, Recombinant human EGFR-Fc (aa 1-645 of …). This is another data set of the same source.
Test [11] has as its target T1, IGF1R-Fc (extracellular domain of human …). The source holds these as a separate data set.
The target of test [12] is T3, EGFR on the surface of human tumour …. As to the kind of experiment: cell-based or functional assay. This is another data set of the same source.
In a further test the target is mouse EGFR (mouse, UniProt Q01279 25-647, limits assumed). Briefly: SPR Biacore.
The next test deals with monkey EGFR (monkey). As to the kind of experiment: SPR Biacore. For orientation: Surface plasmon resonance follows binding to a sensor surface in real time, without labels.
The target in another test is rat EGFR (rat, UniProt A0ABK0LZB0 35-1214). Briefly: SPR Biacore.
Test [13] has as its target T3, EGFR on the surface of human tumour …. The source holds these as a separate data set.
Test [14] has as its target T2, Recombinant human EGFR-Fc (aa 1-645 of …). The source holds these as a separate data set.
Test [15] concerns the target T3, EGFR on the surface of human tumour …. As to the kind of experiment: cell-based or functional assay. The source holds these as a separate data set.
Test [16] deals with T4, IGF-IR on human tumour cells (H292, …). Briefly: cell-based or functional assay. This is another data set of the same source.
Test [17] concerns the target T2, Recombinant human EGFR-Fc (aa 1-645 of …). Briefly: SPR Biacore.
Test [18] has the same target. Briefly: BIAcore.
The target of test [19] is T3, EGFR on the surface of human tumour …. As to the kind of experiment: cell-based or functional assay. The source holds these as a separate data set.
For test [20] the target is unchanged. As to the kind of experiment: cell-based or functional assay. This is another data set of the same source.
Test [21] has the same target. Briefly: cell-based or functional assay. This is another data set of the same source.
Test [22] concerns the target T4, IGF-IR on human tumour cells (H292, …). Briefly: cell-based or functional assay. The source holds these as a separate data set.
In test [23] the target is T3, EGFR on the surface of human tumour …. The source holds these as a separate data set.
Test [24] has the same target. As to the kind of experiment: cell-based or functional assay. This is another data set of the same source.
The target is the same in test [25]. This is another data set of the same source.
The target in test [26] is T2, Recombinant human EGFR-Fc (aa 1-645 of …). This is another data set of the same source.
The target is the same in test [27]. This is another data set of the same source.
For test [28] the target is unchanged. The source holds these as a separate data set.

B1: E1-GS10-I1, His-tagged, non-pegylated (designed binder)
chain: MGVSDVPRDLEVVAATPTSLLISWVAGAEDYQYYRITYGETGGNSPVQEFTVPHDLVTATISGLKPGVDYTITVYAVTDMMHVEYTEHPISINYRTEIDKGSGSGSGSGSGSGSGSGSGSVSDVPRDLEVVAATPTSLLISWSARLKVARYYRITYGETGGNSPVQEFTVPKNVYTATISGLKPGVDYTITVYAVTRFRDYQPISINYRTEIDKPSQHHHHHH
notes: bispecific EGFR/IGF-IR tandem of two 10Fn3 domains
In general, Kd refers to the free concentration of one partner at which half of the binding sites on the other are occupied at equilibrium, for simple one-to-one binding. By IC50 is commonly meant the midpoint of a concentration-inhibition curve. Broadly, the koff is a measure of how fast the partners let go of each other. Broadly, the kon is the rate constant with which the complex forms. As to B1, the Kd in test [1] was determined as 0.8 nM. For the same molecule, the Kd in [2] turned out to be 3.8 nM. Also, in test [3], the “A431 pEGFR IC50 (In-Cell Western)” value was 36 nM, the “A431 pERK IC50 (In-Cell Western)” value worked out at 51 nM and the “H292 pEGFR IC50 (ELISA)” value is 30 nM. For the same molecule, the “H292 pIGF-IR IC50 (ELISA)” value in test [4] amounted to 1 nM. Moreover, the IC50 in test [5] stood at 14.6 nM. Besides, in [6], the Kd is 0.66 nM, the koff was 0.000338 s⁻¹ and the kon was found to be 513000 M⁻¹ s⁻¹. The “inhibition of EGF-stimulated EGFR phosphorylation (Y1068), H292 cells, ELISA, IC50” value in test [7] was found to be 20 nM. For the same molecule, in test [8], the “inhibition of IGF1-stimulated IGF1R phosphorylation (Y1131), H292 cells, ELISA, IC50” value was 4 nM and the “inhibition of RH41 cell proliferation, IC50” value came out at 9 nM. In [9], the IC50 was found to be 51 nM. For the same molecule, in [10], the Kd was 10.2 nM and 7.53 nM; the koff was 0.000389 s⁻¹ and 0.000474 s⁻¹; the kon was 38200 M⁻¹ s⁻¹ and 62900 M⁻¹ s⁻¹.

B2: I1-GS10-E4 pegylated, His-tagged (designed binder)
chain: MGVSDVPRDLEVVAATPTSLLISWSARLKVARYYRITYGETGGNSPVQEFTVPKNVYTATISGLKPGVDYTITVYAVTRFRDYQPISINYRTEIDKGSGSGSGSGSGSGSGSGSGSVSDVPRDLEVVAATPTSLLISWHERDGSRQYYRITYGETGGNSPVQEFTVPGGVRTATISGLKPGVDYTITVYAVTDYFNPTTHEYIYQTTPISINYRTEIDKPCQHHHHHH
modifications: 40 kDa branched PEG on the Cys of the C-terminal Cys tail
On to B2, for which the Kd turned out to be 0.46 nM in test [11]; 5.5 nM with mouse EGFR; 3.9 nM with monkey EGFR; 3.7 nM in the test with rat EGFR; 3.63 nM in test [14]. Further, the “H292 colony formation assay IC50” value in test [12] was 6 nM. In test [13], this molecule registered an IC50 of 38.1 nM. Besides, in test [15], the “IC50, EGF-induced EGFR phosphorylation, A431 cells, In Cell Western” value was found to be 12 nM. For the same molecule, in test [15], the “IC50, EGF-induced ERK phosphorylation, A431 cells, In Cell Western” value was determined as 13 nM. The “IC50, EGF-stimulated EGFR phosphorylation, H292 cells, ELISA” value in test [15] is 4 nM. For the same molecule, the “IC50, IGF1-stimulated IGFR phosphorylation, H292 cells, ELISA” value in test [16] was 0.2 nM.

B3: E1 EGFR 10Fn3-based binder, His-tagged monomer (designed binder)
chain: MGVSDVPRDLEVVAATPTSLLISWVAGAEDYQYYRITYGETGGNSPVQEFTVPHDLVTATISGLKPGVDYTITVYAVTDMMHVEYTEHPISINYRTEIDKPSQHHHHHH
As for B3, in test [17], the Kd is 9.92 nM. In addition, the Kd in test [18] turned out to be 14.6 nM. In test [19], the “Inhibition of H292 Proliferation IC50” value came out at 18 nM, the “Inhibition of PERK IC50” value worked out at 17 nM and the “Inhibition of pEGFR IC50” value worked out at 18 nM. The “IC50, EGF-stimulated EGFR phosphorylation, H292 cells, ELISA” value in test [20] stood at 8 nM. Also, in [21], the “A431 pEGFR IC50 (In-Cell Western)” value stood at 24 nM, the “A431 pERK IC50 (In-Cell Western)” value was determined as 13 nM and the “H292 pEGFR IC50 (ELISA)” value amounted to 9 nM. The “H292 pIGF-IR IC50 (ELISA)” value in test [22] is more than 3.4 µM. In addition, in test [23], the IC50 was determined as 0.53 nM. Besides, the IC50 in test [5] was 14 nM. The “% inhibition of EGFR phosphorylation at 100 nM binder, cell-based assay” value in test [24] was 85.9%. In test [25], this molecule had an IC50 of 15.9 nM. The “inhibition of EGF-stimulated EGFR phosphorylation (Y1068), H292 cells, ELISA, IC50” value in test [7] came to 7 nM. For the same molecule, the “inhibition of IGF1-stimulated IGF1R phosphorylation (Y1131), H292 cells, ELISA, IC50” value in test [8] is more than 3500 nM. In test [10], the Kd is 9.92 nM and 13.2 nM; the koff was 0.00118 s⁻¹ and 0.00189 s⁻¹; the kon was 119000 M⁻¹ s⁻¹ and 143000 M⁻¹ s⁻¹.

B4: E3 EGFR 10Fn3-based binder, His-tagged monomer (designed binder)
chain: B3 chain with V25L, A26P, A28K, E29L, D30R, V57R, D79N, T86S, H88Y
Turning to B4, the Kd in [17] came out at 3.4 nM. Besides, the Kd in test [18] worked out at 0.72 nM. Moreover, in test [19], the “Inhibition of H292 Proliferation IC50” value worked out at 26 nM, the “Inhibition of PERK IC50” value was found to be 97 nM and the “Inhibition of pEGFR IC50” value came out at 11 nM. In test [20], the “IC50, EGF-stimulated EGFR phosphorylation, A431 cells, In Cell Western” value stood at 14 nM and the “IC50, EGF-stimulated EGFR phosphorylation, H292 cells, ELISA” value was 21 nM. For the same molecule, in [21], the “A431 pEGFR IC50 (In-Cell Western)” value is 15 nM, the “A431 pERK IC50 (In-Cell Western)” value amounted to 11 nM and the “H292 pEGFR IC50 (ELISA)” value turned out to be 22 nM. In test [22], the “H292 pIGF-IR IC50 (ELISA)” value was more than 7 µM. This molecule displayed an IC50 in test [23] of 0.87 nM. For the same molecule, in test [26], the Kd is 1.4 nM. The Kd in test [27] was determined as 3.4 nM. Moreover, in test [24], the “% inhibition of EGFR phosphorylation at 100 nM binder, cell-based assay” value came to 87.5%. This molecule also gave an IC50 in test [25] of 4.75 nM. In [28], the koff stood at 0.000398 s⁻¹ and the kon came to 283000 M⁻¹ s⁻¹.

B5: E4-GS10-I1 pegylated, His-tagged (designed binder)
chain: MGVSDVPRDLEVVAATPTSLLISWHERDGSRQYYRITYGETGGNSPVQEFTVPGGVRTATISGLKPGVDYTITVYAVTDYFNPTTHEYIYQTTPISINYRTEIDKGSGSGSGSGSGSGSGSGSGSVSDVPRDLEVVAATPTSLLISWSARLKVARYYRITYGETGGNSPVQEFTVPKNVYTATISGLKPGVDYTITVYAVTRFRDYQPISINYRTEIDKPCQHHHHHH
modifications: 40 kDa branched PEG on the Cys of the C-terminal Cys tail
notes: also called E4-GS10-I1 (with Peg)
For the molecule B5, the Kd worked out at 0.77 nM in test [11]; 6.9 nM with mouse EGFR; 5.7 nM with monkey EGFR; 5.6 nM in the test with rat EGFR; 4.77 nM in [14]. Moreover, the “H292 colony formation assay IC50” value in test [12] amounted to 5 nM. Also, the IC50 in [13] amounted to 19.5 nM. In addition, the “IC50, EGF-induced EGFR phosphorylation, A431 cells, In Cell Western” value in test [15] is 12 nM. In addition, in [15], the “IC50, EGF-induced ERK phosphorylation, A431 cells, In Cell Western” value stood at 12 nM. In addition, the “IC50, EGF-stimulated EGFR phosphorylation, H292 cells, ELISA” value in test [15] was 1.3 nM. Besides, the “IC50, IGF1-stimulated IGFR phosphorylation, H292 cells, ELISA” value in test [16] amounted to 0.4 nM.

The values are drawn from patent publication US20180037631A1 (Bristol-Myers Squibb, published 2018).
